One molecule from patent US20170204187A1, “METHODS OF TREATING AND PREVENTING CANCER DRUG RESISTANCE” (Genentech, Inc., priority 2014, published 2017) can be followed below.

This assay has as its system LOX-IMVI cells. In words: Secreted factor rescue screen on LOX-IMVI (FIG. 23). Type of assay: cell-based. The text has this:
FIG. 23 A-C.|Vemurafenib resistant and sensitive cell lines can be used to determine and anticipate paths to resistance in patients. LOX-IMVI cells were rescued by FGF1, FGF2, EGF, and HGF in the screen. A, LOX-IMVI VemR cells were re-sensitized to PLX4032 by FGFR inhibition. B, Dual resistant LOX-IMVI VemR/FGFRi (i.e., resistant to vemurafenib and FGFR inhibitor) cells were re-sensitized to PLX4032 by EGFR inhibition. C, Triple resistant LOX-IMVI VemR/FGFRi/Erlotinib cells were re-sensitized to PLX4032 by MET inhibition.

B1: EGF: secreted factor (protein, UniProt P01133 23-1207, looked up)
Pro-epidermal growth factor: PQHWSCPEGTLAGNGNSTCVGPAPFLIFSHGNSIFRIDTEGTNYEQLVVDAGVSVIMDFHYNEKRIYWVDLERQLLQRVFLNGSRQERVCNIEKNVSGMAINWINEEVIWSNQQEGIITVTDMKGNNSHILLSALKYPANVAVDPVERFIFWSSEVAGSLYRADLDGVGVKALLETSEKITAVSLDVLDKRLFWIQYNREGSNSLICSCDYDGGSVHISKHPTQHNLFAMSLFGDRIFYSTWKMKTIWIANKHTGKDMVRINLHSSFVPLGELKVVHPLAQPKAEDDTWEPEQKLCKLRKGNCSSTVCGQDLQSHLCMCAEGYALSRDRKYCEDVNECAFWNHGCTLGCKNTPGSYYCTCPVGFVLLPDGKRCHQLVSCPRNVSECSHDCVLTSEGPLCFCPEGSVLERDGKTCSGCSSPDNGGCSQLCVPLSPVSWECDCFPGYDLQLDEKSCAASGPQPFLLFANSQDIRHMHFDGTDYGTLLSQQMGMVYALDHDPVENKIYFAHTALKWIERANMDGSQRERLIEEGVDVPEGLAVDWIGRRFYWTDRGKSLIGRSDLNGKRSKIITKENISQPRGIAVHPMAKRLFWTDTGINPRIESSSLQGLGRLVIASSDLIWPSGITIDFLTDKLYWCDAKQSVIEMANLDGSKRRRLTQNDVGHPFAVAVFEDYVWFSDWAMPSVMRVNKRTGKDRVRLQGSMLKPSSLVVVHPLAKPGADPCLYQNGGCEHICKKRLGTAWCSCREGFMKASDGKTCLALDGHQLLAGGEVDLKNQVTPLDILSKTRVSEDNITESQHMLVAEIMVSDQDDCAPVGCSMYARCISEGEDATCQCLKGFAGDGKLCSDIDECEMGVPVCPPASSKCINTEGGYVCRCSEGYQGDGIHCLDIDECQLGEHSCGENASCTNTEGGYTCMCAGRLSEPGLICPDSTPPPHLREDDHHYSVRNSDSECPLSHDGYCLHDGVCMYIEALDKYACNCVVGYIGERCQYRDLKWWELRHAGHGQQQKVIVVAVCVVVLVMLLLLSLWGAHYYRTQKLLSKNPKNPYEESSRDVRSRRPADTEDGMSSCPQPWFVVIKEHQDLKNGGQPVAGEDGQAADGSMQPTSWRQEPQLCGMGTEQGCWIPVSSDKGSCPQVMERSFHMPSYGTQTLEGGVEKPHSLLSANPLWQQRALDPPHQMELTQ
modifications: Pro-epidermal growth factor
Consider B1, for which the “rescue in the secreted factor screen” value is on record as “rescued”.
